Data published in patent US20260167699A1 (Chugai, published 2026).

Target: T1, FcγRIIIa (human, UniProt P08637 17-208)
T1 construct: extracellular domain; also called 3a; FcγRIIIa extracellular domain
Assay: SPR (Biacore);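 also: antibody variants captured on an SPR sensor chip, with FcγRIIIa passed over as analyte in HBS-EP+ buffer at 25 °C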

T1 sequence (P08637 other isoform, or with tags, fused parts or gaps): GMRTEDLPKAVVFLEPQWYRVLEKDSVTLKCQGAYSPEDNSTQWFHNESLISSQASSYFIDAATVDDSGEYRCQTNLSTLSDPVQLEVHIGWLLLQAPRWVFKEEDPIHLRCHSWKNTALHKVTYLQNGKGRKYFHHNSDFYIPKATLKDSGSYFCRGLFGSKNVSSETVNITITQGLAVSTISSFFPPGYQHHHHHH

| Binder | He/Con 3a |
| --- | --- |
| GpH7-A5/GpH7-B3 variant S324_02A/GpL16-k0 (antibody, human IgG1, kappa, copies: 1 + 1 + 2) heavy 1: not shown heavy 2: not shown light: DIVMTQSPLSLPVTPGEPASISCQASESLVHSNRNTYLHWYLQKPGQSPQLLIYKVSNRFSGVPDRFSGSGSGTDFTLKISRVEAEDVGVYYCSQNTHVPPTFGQGTKVEIERTVAAPSVFIFPPSDEQLKSGTASVVCLLNNFYPREAKVQWKVDNALQSGNSQESVTEQDSKDSTYSLSSTLTLSKADYEKHKVYACEVTHQGLSSPVTKSFNRGEC | 113 % of GpH7-A5/GpH7-B3/GpL16-k0 |
| GpH7-A5/GpH7-B3 variant S324_06M/GpL16-k0 (antibody, human IgG1, kappa, copies: 1 + 1 + 2) heavy 1: not shown heavy 2: not shown light: DIVMTQSPLSLPVTPGEPASISCQASESLVHSNRNTYLHWYLQKPGQSPQLLIYKVSNRFSGVPDRFSGSGSGTDFTLKISRVEAEDVGVYYCSQNTHVPPTFGQGTKVEIERTVAAPSVFIFPPSDEQLKSGTASVVCLLNNFYPREAKVQWKVDNALQSGNSQESVTEQDSKDSTYSLSSTLTLSKADYEKHKVYACEVTHQGLSSPVTKSFNRGEC | 124 % of GpH7-A5/GpH7-B3/GpL16-k0 |
| GpH7-A5/GpH7-B3 variant S298_15Y/GpL16-k0 (antibody, human IgG1, kappa, copies: 1 + 1 + 2) heavy 1: not shown heavy 2: not shown light: DIVMTQSPLSLPVTPGEPASISCQASESLVHSNRNTYLHWYLQKPGQSPQLLIYKVSNRFSGVPDRFSGSGSGTDFTLKISRVEAEDVGVYYCSQNTHVPPTFGQGTKVEIERTVAAPSVFIFPPSDEQLKSGTASVVCLLNNFYPREAKVQWKVDNALQSGNSQESVTEQDSKDSTYSLSSTLTLSKADYEKHKVYACEVTHQGLSSPVTKSFNRGEC | 80.6 % of GpH7-A5/GpH7-B3/GpL16-k0 |
| GpH7-A5/GpH7-B3 variant S324_10E/GpL16-k0 (antibody, human IgG1, kappa, copies: 1 + 1 + 2) heavy 1: not shown heavy 2: not shown light: DIVMTQSPLSLPVTPGEPASISCQASESLVHSNRNTYLHWYLQKPGQSPQLLIYKVSNRFSGVPDRFSGSGSGTDFTLKISRVEAEDVGVYYCSQNTHVPPTFGQGTKVEIERTVAAPSVFIFPPSDEQLKSGTASVVCLLNNFYPREAKVQWKVDNALQSGNSQESVTEQDSKDSTYSLSSTLTLSKADYEKHKVYACEVTHQGLSSPVTKSFNRGEC | 108 % of GpH7-A5/GpH7-B3/GpL16-k0 |
| GpH7-A5/GpH7-B3 variant S298_19Q/GpL16-k0 (antibody, human IgG1, kappa, copies: 1 + 1 + 2) heavy 1: not shown heavy 2: not shown light: DIVMTQSPLSLPVTPGEPASISCQASESLVHSNRNTYLHWYLQKPGQSPQLLIYKVSNRFSGVPDRFSGSGSGTDFTLKISRVEAEDVGVYYCSQNTHVPPTFGQGTKVEIERTVAAPSVFIFPPSDEQLKSGTASVVCLLNNFYPREAKVQWKVDNALQSGNSQESVTEQDSKDSTYSLSSTLTLSKADYEKHKVYACEVTHQGLSSPVTKSFNRGEC | 70.6 % of GpH7-A5/GpH7-B3/GpL16-k0 |
| GpH7-A5/GpH7-B3 variant S324_01G/GpL16-k0 (antibody, human IgG1, kappa, copies: 1 + 1 + 2) heavy 1: not shown heavy 2: not shown light: DIVMTQSPLSLPVTPGEPASISCQASESLVHSNRNTYLHWYLQKPGQSPQLLIYKVSNRFSGVPDRFSGSGSGTDFTLKISRVEAEDVGVYYCSQNTHVPPTFGQGTKVEIERTVAAPSVFIFPPSDEQLKSGTASVVCLLNNFYPREAKVQWKVDNALQSGNSQESVTEQDSKDSTYSLSSTLTLSKADYEKHKVYACEVTHQGLSSPVTKSFNRGEC | 114 % of GpH7-A5/GpH7-B3/GpL16-k0 |
| GpH7-A5/GpH7-B3 variant S324_05P/GpL16-k0 (antibody, human IgG1, kappa, copies: 1 + 1 + 2) heavy 1: not shown heavy 2: not shown light: DIVMTQSPLSLPVTPGEPASISCQASESLVHSNRNTYLHWYLQKPGQSPQLLIYKVSNRFSGVPDRFSGSGSGTDFTLKISRVEAEDVGVYYCSQNTHVPPTFGQGTKVEIERTVAAPSVFIFPPSDEQLKSGTASVVCLLNNFYPREAKVQWKVDNALQSGNSQESVTEQDSKDSTYSLSSTLTLSKADYEKHKVYACEVTHQGLSSPVTKSFNRGEC | 72.3 % of GpH7-A5/GpH7-B3/GpL16-k0 |
| GpH7-A5/GpH7-B3 variant S324_11K/GpL16-k0 (antibody, human IgG1, kappa, copies: 1 + 1 + 2) heavy 1: not shown heavy 2: not shown light: DIVMTQSPLSLPVTPGEPASISCQASESLVHSNRNTYLHWYLQKPGQSPQLLIYKVSNRFSGVPDRFSGSGSGTDFTLKISRVEAEDVGVYYCSQNTHVPPTFGQGTKVEIERTVAAPSVFIFPPSDEQLKSGTASVVCLLNNFYPREAKVQWKVDNALQSGNSQESVTEQDSKDSTYSLSSTLTLSKADYEKHKVYACEVTHQGLSSPVTKSFNRGEC | 90.2 % of GpH7-A5/GpH7-B3/GpL16-k0 |
| GpH7-A5/GpH7-B3 variant S324_04F/GpL16-k0 (antibody, human IgG1, kappa, copies: 1 + 1 + 2) heavy 1: not shown heavy 2: not shown light: DIVMTQSPLSLPVTPGEPASISCQASESLVHSNRNTYLHWYLQKPGQSPQLLIYKVSNRFSGVPDRFSGSGSGTDFTLKISRVEAEDVGVYYCSQNTHVPPTFGQGTKVEIERTVAAPSVFIFPPSDEQLKSGTASVVCLLNNFYPREAKVQWKVDNALQSGNSQESVTEQDSKDSTYSLSSTLTLSKADYEKHKVYACEVTHQGLSSPVTKSFNRGEC | 99.3 % of GpH7-A5/GpH7-B3/GpL16-k0 |
| GpH7-A5/GpH7-B3 variant S324_14T/GpL16-k0 (antibody, human IgG1, kappa, copies: 1 + 1 + 2) heavy 1: not shown heavy 2: not shown light: DIVMTQSPLSLPVTPGEPASISCQASESLVHSNRNTYLHWYLQKPGQSPQLLIYKVSNRFSGVPDRFSGSGSGTDFTLKISRVEAEDVGVYYCSQNTHVPPTFGQGTKVEIERTVAAPSVFIFPPSDEQLKSGTASVVCLLNNFYPREAKVQWKVDNALQSGNSQESVTEQDSKDSTYSLSSTLTLSKADYEKHKVYACEVTHQGLSSPVTKSFNRGEC | 112 % of GpH7-A5/GpH7-B3/GpL16-k0 |
| GpH7-A5/GpH7-B3 variant S324_15Y/GpL16-k0 (antibody, human IgG1, kappa, copies: 1 + 1 + 2) heavy 1: not shown heavy 2: not shown light: DIVMTQSPLSLPVTPGEPASISCQASESLVHSNRNTYLHWYLQKPGQSPQLLIYKVSNRFSGVPDRFSGSGSGTDFTLKISRVEAEDVGVYYCSQNTHVPPTFGQGTKVEIERTVAAPSVFIFPPSDEQLKSGTASVVCLLNNFYPREAKVQWKVDNALQSGNSQESVTEQDSKDSTYSLSSTLTLSKADYEKHKVYACEVTHQGLSSPVTKSFNRGEC | 110 % of GpH7-A5/GpH7-B3/GpL16-k0 |
